Measured values from US20130251712A1 (NATIONAL RESEARCH COUNCIL OF CANADA, published 2013).

T1: TβR2cK (R2cK), receptor-coil fusion with thrombin cleavage site, expressed alone (human)
T1 construct: Conditioned medium of 293 cells; also called TβR2cKcoil
T1 chain: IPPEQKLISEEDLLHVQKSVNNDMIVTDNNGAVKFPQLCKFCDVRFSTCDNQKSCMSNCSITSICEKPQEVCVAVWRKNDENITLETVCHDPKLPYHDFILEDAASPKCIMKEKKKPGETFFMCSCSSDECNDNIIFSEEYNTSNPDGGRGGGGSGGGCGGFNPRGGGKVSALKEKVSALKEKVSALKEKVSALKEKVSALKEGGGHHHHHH

T2: TβR2ECD-cK5 (TβR2ECD with linker cassette fused to the cK5 C-terminal construct) (human)
T2 construct: Conditioned medium of 293 cells, expressed alone; also called TβR2-K5coil with internal cys/TEV
T2 chain: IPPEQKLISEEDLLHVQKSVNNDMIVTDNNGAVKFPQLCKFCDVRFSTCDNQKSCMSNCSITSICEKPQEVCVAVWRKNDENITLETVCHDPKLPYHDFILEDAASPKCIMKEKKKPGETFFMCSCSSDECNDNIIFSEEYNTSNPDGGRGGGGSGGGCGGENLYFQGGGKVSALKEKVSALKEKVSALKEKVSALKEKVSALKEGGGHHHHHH


How the values were obtained:
[1] = biological target: T1, TβR2cK (R2cK), receptor-coil fusion …; experiment: non-reducing SDS gel and western blot with anti-TβRII antibody; E/K coil dimer fixed by an interchain disulfide
Description: Plasmids encoding the R2cK and R2cE constructs were transfected separately or co-transfected into 293 cells. Conditioned media from these cells were then analyzed by western blot to detect R2cK and R2cE expression and tested for TGF-β3 neutralization (FIG. 6A-C). By themselves R2cE or R2cK were unable to neutralize TGF-β3. […] Based on their activities in FIG. 6A, these forms are non-productive, i.e. cannot neutralize TGF-β. Expressed together, R2cE+R2cK predominantly form dimers of about 80 Kd and only minimal amounts of the monomers are seen in the non-reducing gel (FIG. 6B, lane 3), indicating a covalent, inter-chain disulfide bridge has been established (Click, FIG. 6B). Subsequent cleavage of R2cE+R2cK with a sufficient amount of thrombin (++) generates an R2c+R2c dimer (about 60 Kd) that is held together by an inter-chain disulfide (in the non-reducing SDS gel) and that no longer contains the coils (Cleave, FIG. 6C). The resultant TGF-/3 trap generated by the clamp/click/cleave (CCC) process described above is depicted as a molecular model in FIG. 7.

[2] = biological target: T2, TβR2ECD-cK5 (TβR2ECD with linker …); experiment: non-reducing SDS gel and western blot with anti-TβR2 antibody; E/K coil dimer fixed by an interchain disulfide

| Binder | binding result [1] | binding result [2] |
| --- | --- | --- |
| TβR2cE (R2cE), receptor-coil fusion with thrombin cleavage site, expressed alone (receptor, Conditioned medium of 293 cells; also called TβR2cEcoil) IPPEQKLISEEDLLHVQKSVNNDMIVTDNNGAVKFPQLCKFCDVRFSTCDNQKSCMSNCSITSICEKPQEVCVAVWRKNDENITLETVCHDPKLPYHDFILEDAASPKCIMKEKKKPGETFFMCSCSSDECNDNIIFSEEYNTSNPDGGRGGGGSGGGCGGFNPRGGGEVSALEKEVSALEKEVSALEKEVSALEKEVSALEKGGGHHHHHH | binds |  |
| TβR2ECD-cE5 (TβR2ECD with linker cassette fused to the cE5 C-terminal construct) (receptor, Secreted into conditioned medium of transfected 293 cells; tested unpurified, expressed alone; also called TβR2-E5coil with internal cys/TEV) IPPEQKLISEEDLLHVQKSVNNDMIVTDNNGAVKFPQLCKFCDVRFSTCDNQKSCMSNCSITSICEKPQEVCVAVWRKNDENITLETVCHDPKLPYHDFILEDAASPKCIMKEKKKPGETFFMCSCSSDECNDNIIFSEEYNTSNPDGGRGGGGSGGGCGGENLYFQGGGEVSALEKEVSALEKEVSALEKEVSALEKEVSALEKGGGHHHHHH |  | binds |
